Results taken from patent publication US20160136234A1.

Assays:
Experiment in all cases: cell-based or functional assay
Src(T341M) (h) (human) = Src(T341M) (h) (human) (UniProt P12931)
MuSK (h) (human) = MuSK (h) (human) (UniProt O15146)
Fes (h) (human) = Fes (h) (human) (UniProt P07332)
Abl(T315I) (h) (human) = Abl(T315I) (h) (human) (UniProt P00519)
MSK1 (h) (human) = MSK1 (h) (human) (UniProt O75582)
PTK5 (h) (human) = PTK5 (h) (human) (UniProt P42685)
CDK5/p25 (h) (human) = CDK5/p25 (h) (human) (UniProt Q00535)
NEK6 (h) (human) = NEK6 (h) (human) (UniProt Q9HC98)
Rsk3 (h) (human) = Rsk3 (h) (human) (UniProt Q15349)
Sequence of Rsk3 (h) (human) (Q15349 whole entry): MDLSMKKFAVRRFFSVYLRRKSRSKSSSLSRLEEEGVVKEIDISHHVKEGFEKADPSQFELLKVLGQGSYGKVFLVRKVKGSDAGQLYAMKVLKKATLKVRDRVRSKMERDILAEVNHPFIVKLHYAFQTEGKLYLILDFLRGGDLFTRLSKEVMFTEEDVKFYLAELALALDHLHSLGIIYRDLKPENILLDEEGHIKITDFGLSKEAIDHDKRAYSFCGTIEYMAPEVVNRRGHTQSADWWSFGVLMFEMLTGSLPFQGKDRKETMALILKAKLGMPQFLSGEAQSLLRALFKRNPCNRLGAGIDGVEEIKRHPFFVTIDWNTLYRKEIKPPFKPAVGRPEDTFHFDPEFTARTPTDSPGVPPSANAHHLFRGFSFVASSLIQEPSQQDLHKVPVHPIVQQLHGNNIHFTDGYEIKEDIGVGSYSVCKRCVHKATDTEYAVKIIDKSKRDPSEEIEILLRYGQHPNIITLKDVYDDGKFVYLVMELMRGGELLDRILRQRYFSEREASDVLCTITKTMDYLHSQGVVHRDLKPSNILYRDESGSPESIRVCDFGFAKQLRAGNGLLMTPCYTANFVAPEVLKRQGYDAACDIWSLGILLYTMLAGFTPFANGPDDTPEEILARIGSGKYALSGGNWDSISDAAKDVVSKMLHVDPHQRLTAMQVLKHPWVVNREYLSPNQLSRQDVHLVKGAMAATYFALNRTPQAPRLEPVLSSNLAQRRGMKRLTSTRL

EphA4 (h) (human) = EphA4 (h) (human) (UniProt P54764)
Sequence of EphA4 (h) (human) (P54764 570-986 limits assumed): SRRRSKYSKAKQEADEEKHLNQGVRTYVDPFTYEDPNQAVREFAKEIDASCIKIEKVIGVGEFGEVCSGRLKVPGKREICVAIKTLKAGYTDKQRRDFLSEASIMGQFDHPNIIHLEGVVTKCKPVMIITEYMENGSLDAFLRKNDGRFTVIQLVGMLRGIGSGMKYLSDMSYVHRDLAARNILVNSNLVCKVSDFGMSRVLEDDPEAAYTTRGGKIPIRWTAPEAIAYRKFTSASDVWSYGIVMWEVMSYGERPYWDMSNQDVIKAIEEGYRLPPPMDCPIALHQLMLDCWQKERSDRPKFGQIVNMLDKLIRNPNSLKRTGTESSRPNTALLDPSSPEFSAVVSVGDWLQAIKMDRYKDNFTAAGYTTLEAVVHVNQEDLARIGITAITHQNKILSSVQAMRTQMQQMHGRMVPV

CK1γ2 (h) (human) = CK1γ2 (h) (human) (UniProt P78368)
CaMKIIγ (h) (human) = CaMKIIγ (h) (human) (UniProt Q13555)
Sequence of CaMKIIγ (h) (human) (Q13555 whole entry): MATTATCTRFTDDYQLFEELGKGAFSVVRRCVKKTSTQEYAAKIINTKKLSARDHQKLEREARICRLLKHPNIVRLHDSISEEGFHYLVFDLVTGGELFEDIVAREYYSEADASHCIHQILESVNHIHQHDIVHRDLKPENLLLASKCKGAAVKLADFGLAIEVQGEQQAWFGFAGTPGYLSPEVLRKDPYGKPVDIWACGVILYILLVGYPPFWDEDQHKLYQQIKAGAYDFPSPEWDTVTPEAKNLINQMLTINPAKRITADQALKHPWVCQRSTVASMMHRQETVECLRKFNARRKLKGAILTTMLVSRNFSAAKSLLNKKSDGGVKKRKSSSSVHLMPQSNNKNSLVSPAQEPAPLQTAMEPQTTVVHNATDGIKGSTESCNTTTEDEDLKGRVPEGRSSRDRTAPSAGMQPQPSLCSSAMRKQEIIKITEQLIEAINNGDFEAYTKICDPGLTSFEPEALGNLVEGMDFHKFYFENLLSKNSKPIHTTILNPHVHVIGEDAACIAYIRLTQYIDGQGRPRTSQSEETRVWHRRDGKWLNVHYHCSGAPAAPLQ

FGFR2 (h) (human) = FGFR2 (h) (human) (UniProt P21802)
ErbB4 (h) (human) = ErbB4 (h) (human) (UniProt Q15303)
Sequence of ErbB4 (h) (human) (Q15303 706-991 limits assumed): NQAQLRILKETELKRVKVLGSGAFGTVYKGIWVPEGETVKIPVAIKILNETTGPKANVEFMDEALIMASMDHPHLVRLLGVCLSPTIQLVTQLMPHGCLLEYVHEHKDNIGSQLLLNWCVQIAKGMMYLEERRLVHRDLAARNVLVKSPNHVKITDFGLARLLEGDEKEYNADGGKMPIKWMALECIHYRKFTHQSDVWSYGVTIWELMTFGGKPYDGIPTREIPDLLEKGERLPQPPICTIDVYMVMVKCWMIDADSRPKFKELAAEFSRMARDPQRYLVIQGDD

CK1γ3 (h) (human) = CK1γ3 (h) (human) (UniProt Q9Y6M4)
MST1 (h) (human) = target: T1, MST1 (h) (human) (UniProt Q13043)
T1 sequence (looked up): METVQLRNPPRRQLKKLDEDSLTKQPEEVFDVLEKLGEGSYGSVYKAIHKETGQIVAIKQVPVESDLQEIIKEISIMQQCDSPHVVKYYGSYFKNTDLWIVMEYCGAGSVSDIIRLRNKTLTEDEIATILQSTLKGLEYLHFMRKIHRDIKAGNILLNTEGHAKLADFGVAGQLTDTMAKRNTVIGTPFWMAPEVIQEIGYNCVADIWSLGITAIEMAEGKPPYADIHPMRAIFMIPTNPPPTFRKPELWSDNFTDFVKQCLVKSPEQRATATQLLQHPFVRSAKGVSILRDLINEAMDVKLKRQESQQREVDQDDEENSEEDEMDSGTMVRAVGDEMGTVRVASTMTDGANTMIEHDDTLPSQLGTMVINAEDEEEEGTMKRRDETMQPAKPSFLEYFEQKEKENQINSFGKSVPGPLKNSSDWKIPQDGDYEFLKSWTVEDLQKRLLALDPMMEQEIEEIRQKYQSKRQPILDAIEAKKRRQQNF

PKBβ (h) (human) = PKBβ (h) (human) (UniProt P31751)
AMPKα2 (h) (human) = AMPKα2 (h) (human) (UniProt P54646)
PASK (h) (human) = PASK (h) (human) (UniProt Q96RG2)
Pim-1 (h) (human) = Pim-1 (h) (human) (UniProt P11309)
Axl (h) (human) = target: T2, Axl (h) (human) (UniProt P30530)
T2 sequence (looked up): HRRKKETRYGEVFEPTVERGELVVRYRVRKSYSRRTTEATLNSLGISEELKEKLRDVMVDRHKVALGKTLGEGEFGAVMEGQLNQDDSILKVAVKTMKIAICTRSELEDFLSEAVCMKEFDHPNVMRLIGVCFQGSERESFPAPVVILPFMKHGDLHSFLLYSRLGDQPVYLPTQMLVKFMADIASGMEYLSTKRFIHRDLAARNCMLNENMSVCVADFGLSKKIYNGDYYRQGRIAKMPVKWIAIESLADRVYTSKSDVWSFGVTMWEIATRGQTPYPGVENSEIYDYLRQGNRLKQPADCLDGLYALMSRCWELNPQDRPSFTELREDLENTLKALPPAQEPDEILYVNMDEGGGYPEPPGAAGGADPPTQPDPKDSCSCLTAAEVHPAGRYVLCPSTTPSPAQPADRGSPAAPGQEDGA

PAK2 (h) (human) = PAK2 (h) (human) (UniProt Q13177)
Sequence of PAK2 (h) (human) (Q13177 whole entry): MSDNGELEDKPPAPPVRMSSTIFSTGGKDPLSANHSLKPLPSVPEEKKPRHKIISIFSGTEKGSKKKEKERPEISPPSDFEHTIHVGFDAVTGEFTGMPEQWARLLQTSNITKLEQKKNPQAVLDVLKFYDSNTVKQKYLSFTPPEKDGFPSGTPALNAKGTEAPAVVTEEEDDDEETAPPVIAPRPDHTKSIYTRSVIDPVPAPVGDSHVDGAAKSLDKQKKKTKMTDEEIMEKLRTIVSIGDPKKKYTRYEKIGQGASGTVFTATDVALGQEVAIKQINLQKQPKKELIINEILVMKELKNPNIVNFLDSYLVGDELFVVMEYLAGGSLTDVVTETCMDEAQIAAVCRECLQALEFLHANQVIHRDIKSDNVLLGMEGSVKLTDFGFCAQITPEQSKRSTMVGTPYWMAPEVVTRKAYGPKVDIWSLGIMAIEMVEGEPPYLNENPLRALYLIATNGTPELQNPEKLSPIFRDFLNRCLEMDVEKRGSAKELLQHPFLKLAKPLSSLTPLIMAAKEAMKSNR

RIPK2 (h) (human) = RIPK2 (h) (human) (UniProt O43353)
Sequence of RIPK2 (h) (human) (O43353 1-299 limits assumed): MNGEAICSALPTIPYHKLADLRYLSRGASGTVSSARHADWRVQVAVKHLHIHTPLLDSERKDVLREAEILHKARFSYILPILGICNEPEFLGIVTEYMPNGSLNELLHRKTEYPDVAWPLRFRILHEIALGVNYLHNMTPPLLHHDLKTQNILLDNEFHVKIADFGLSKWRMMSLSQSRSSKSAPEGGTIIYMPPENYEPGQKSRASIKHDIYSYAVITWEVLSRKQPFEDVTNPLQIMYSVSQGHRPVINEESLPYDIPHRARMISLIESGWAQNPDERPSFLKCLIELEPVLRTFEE

Lck (h) (human) = Lck (h) (human) (UniProt P06239)
Abl (H396P) (h) (human) = Abl (H396P) (h) (human) (UniProt P00519)
Sequence of Abl (H396P) (h) (human) (P00519 27-1130 H396P limits assumed): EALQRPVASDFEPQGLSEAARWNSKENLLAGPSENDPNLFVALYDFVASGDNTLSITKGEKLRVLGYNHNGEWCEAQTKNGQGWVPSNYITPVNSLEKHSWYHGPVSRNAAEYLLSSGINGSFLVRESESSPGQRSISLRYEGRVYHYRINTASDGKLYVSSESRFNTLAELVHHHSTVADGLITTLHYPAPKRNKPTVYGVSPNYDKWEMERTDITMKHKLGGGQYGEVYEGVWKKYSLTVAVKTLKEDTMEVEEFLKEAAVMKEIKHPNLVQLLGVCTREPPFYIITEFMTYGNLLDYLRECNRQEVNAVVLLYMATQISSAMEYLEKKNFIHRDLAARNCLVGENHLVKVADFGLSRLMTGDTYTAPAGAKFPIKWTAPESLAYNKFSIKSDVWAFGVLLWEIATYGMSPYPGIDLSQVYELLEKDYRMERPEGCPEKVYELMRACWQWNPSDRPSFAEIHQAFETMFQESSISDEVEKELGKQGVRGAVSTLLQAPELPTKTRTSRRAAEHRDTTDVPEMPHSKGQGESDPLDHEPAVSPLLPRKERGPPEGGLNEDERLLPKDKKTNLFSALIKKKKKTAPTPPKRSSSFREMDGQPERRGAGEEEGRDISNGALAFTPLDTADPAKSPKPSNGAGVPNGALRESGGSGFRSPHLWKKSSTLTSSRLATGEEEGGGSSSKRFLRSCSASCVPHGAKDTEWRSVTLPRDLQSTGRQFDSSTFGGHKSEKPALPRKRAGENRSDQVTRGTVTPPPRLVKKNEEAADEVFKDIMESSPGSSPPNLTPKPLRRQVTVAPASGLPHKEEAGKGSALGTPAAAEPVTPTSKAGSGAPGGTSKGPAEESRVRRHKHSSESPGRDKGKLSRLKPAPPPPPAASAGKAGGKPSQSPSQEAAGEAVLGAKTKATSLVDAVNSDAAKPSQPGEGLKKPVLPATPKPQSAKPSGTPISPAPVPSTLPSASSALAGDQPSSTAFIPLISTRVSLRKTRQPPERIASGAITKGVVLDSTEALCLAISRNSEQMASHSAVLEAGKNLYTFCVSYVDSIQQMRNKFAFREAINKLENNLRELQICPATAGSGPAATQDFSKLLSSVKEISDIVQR

SAPK2b (h) (human) = SAPK2b (h) (human) (UniProt Q15759)
Sequence of SAPK2b (h) (human) (Q15759 whole entry): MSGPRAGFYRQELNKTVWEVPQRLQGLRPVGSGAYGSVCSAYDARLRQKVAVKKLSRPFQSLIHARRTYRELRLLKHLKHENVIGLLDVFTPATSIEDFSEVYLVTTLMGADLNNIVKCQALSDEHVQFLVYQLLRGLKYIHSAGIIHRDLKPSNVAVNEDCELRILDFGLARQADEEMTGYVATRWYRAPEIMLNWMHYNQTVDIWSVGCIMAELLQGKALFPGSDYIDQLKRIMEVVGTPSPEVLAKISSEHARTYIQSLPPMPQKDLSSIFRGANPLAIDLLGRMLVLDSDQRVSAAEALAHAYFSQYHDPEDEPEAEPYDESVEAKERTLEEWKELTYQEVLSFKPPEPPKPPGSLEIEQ

Plk3 (h) (human) = Plk3 (h) (human) (UniProt Q9H4B4)
BRK (h) (human) = BRK (h) (human) (UniProt Q13882)
JNK2α2 (h) (human) = JNK2α2 (h) (human) (UniProt P45984)
MSK2 (h) (human) = MSK2 (h) (human) (UniProt O75676)
CDK5/p35 (h) (human) = CDK5/p35 (h) (human) (UniProt Q00535)
PKA (h) (human) = PKA (h) (human) (UniProt P17612)
CaMKIIδ (h) (human) = CaMKIIδ (h) (human) (UniProt Q13557)

Sequence of Abl(T315I) (h) (human) (P00519 27-1130 T315I limits assumed): as the sequence (P00519 27-1130 H396P limits assumed) above, with T289I, P370H counted along it
Sequence of PTK5 (h) (human) (P42685 whole entry): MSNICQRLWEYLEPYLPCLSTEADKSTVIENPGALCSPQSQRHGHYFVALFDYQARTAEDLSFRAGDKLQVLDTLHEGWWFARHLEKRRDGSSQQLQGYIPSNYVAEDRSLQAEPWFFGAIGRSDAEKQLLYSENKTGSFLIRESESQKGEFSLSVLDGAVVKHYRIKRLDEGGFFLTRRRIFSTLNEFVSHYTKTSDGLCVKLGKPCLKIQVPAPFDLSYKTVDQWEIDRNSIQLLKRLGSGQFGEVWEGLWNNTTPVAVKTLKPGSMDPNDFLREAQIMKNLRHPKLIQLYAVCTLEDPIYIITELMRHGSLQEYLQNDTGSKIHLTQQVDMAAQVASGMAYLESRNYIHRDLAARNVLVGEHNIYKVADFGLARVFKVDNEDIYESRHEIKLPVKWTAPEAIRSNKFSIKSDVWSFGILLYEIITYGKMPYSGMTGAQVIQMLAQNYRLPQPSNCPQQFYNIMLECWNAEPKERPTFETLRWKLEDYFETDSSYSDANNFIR

## MMI-0300 (peptide)
Src(T341M) (h) (human)
  % activity at 100 µM: 70%
MuSK (h) (human)
  % activity at 100 µM: 93%
Fes (h) (human)
  % activity at 100 µM: 20%
Abl(T315I) (h) (human)
  % activity at 100 µM: 97%
MSK1 (h) (human)
  % activity at 100 µM: 32%
PTK5 (h) (human)
  % activity at 100 µM: 132%
CDK5/p25 (h) (human)
  % activity at 100 µM: 89%
NEK6 (h) (human)
  % activity at 100 µM: 82%
Rsk3 (h) (human)
  % activity at 100 µM: 76%
EphA4 (h) (human)
  % activity at 100 µM: 88%
CK1γ2 (h) (human)
  % activity at 100 µM: 123%
CaMKIIγ (h) (human)
  % activity at 100 µM: 5%
FGFR2 (h) (human)
  % activity at 100 µM: 14%
ErbB4 (h) (human)
  % activity at 100 µM: 40%
CK1γ3 (h) (human)
  % activity at 100 µM: 125%
MST1 (h) (human)
  % activity at 100 µM: 14%
PKBβ (h) (human)
  % activity at 100 µM: 84%
AMPKα2 (h) (human)
  % activity at 100 µM: 54%
PASK (h) (human)
  % activity at 100 µM: 29%
Pim-1 (h) (human)
  % activity at 100 µM: 8%
Axl (h) (human)
  % activity at 100 µM: 52%
PAK2 (h) (human)
  % activity at 100 µM: 65%
RIPK2 (h) (human)
  % activity at 100 µM: 97%
Lck (h) (human)
  % activity at 100 µM: -2%
Abl (H396P) (h) (human)
  % activity at 100 µM: 101%
SAPK2b (h) (human)
  % activity at 100 µM: 81%
Plk3 (h) (human)
  % activity at 100 µM: 127%
BRK (h) (human)
  % activity at 100 µM: 35%
JNK2α2 (h) (human)
  % activity at 100 µM: 98%
MSK2 (h) (human)
  % activity at 100 µM: 56%
CDK5/p35 (h) (human)
  % activity at 100 µM: 79%
PKA (h) (human)
  % activity at 100 µM: 119%
CaMKIIδ (h) (human)
  % activity at 100 µM: 1%
